Experimental data as given in patent US20210230570.

Assays:
[1] = target: plasma purified human AT-III (antithrombin III), in complex with full-length unfractionated heparin (AT-III/UFH)
[2] = target: Factor X, P00742
[3] = target: Factor X (FX), P00742
Factor X (FX), P00742, sequence (P00742 whole entry, looked up): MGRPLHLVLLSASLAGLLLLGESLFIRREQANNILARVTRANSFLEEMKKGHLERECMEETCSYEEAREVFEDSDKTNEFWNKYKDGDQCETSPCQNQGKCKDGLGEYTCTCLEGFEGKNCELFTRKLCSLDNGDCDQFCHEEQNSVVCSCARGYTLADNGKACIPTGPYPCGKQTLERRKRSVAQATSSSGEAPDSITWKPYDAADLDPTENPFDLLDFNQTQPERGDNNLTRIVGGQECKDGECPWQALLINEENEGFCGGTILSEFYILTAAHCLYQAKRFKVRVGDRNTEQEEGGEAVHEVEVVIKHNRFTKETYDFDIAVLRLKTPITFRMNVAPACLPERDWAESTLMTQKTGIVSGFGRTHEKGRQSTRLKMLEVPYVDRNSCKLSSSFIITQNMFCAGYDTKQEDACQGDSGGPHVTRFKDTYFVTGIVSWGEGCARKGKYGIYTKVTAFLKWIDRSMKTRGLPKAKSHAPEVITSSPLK

Factor X, P00742, sequence (P00742 whole entry, looked up): as above

Row | Protein | K0.5-mut/K0.5-wt (against Catalyst Biosciences WT FIXa) [1] | kcat of FX activation by FIXa (Xase complex with FVIIIa, PC/PS vesicles, Ca2+) [2] | KM (nM); Catalytic activity of FIXa variants (KM) [3] | kcat of FX activation by FIXa in the Xase complex (FVIIIa, PC/PS vesicles, Ca2+) [3] | KM [3] | kcat/KM [3]
1 | FIXa-Y259F/K265T/Y345T (protein) chain 1: YNSGKLEEFVQGNLERECMEEKCSFEEAREVFENTERTTEFWKQYVDGDQCESNPCLNGGSCKDDINSYECWCPFGFEGKNCELDVTCNIKNGRCEQFCKNSADNKVVCSCTEGYRLAENQKSCEPAVPFPCGRVSVSQTSKLTR chain 2: VVGGEDAKPGQFPWQVVLNGKVDAFCGGSIVNEKWIVTAAHCVETGVKITVVAGEHNIEETEHTEQKRNVIRIIPHHNFNAAINTYNHDIALLELDEPLVLNSYVTPICIADKEYTNIFLKFGSGYVSGWGRVFHKGRSALVLQYLRVPLVDRATCLRSTKFTITNNMFCAGFHEGGRDSCQGDSGGPHVTEVEGTSFLTGIISWGEECAMKGKYGIYTKVSRYVNWIKEKTKLT | 0.3 | 1.7 s⁻¹ | – | – | – | –
2 | FIXa-N260S/R318Y/R338E/R403E/E410N (protein) chain 1: YNSGKLEEFVQGNLERECMEEKCSFEEAREVFENTERTTEFWKQYVDGDQCESNPCLNGGSCKDDINSYECWCPFGFEGKNCELDVTCNIKNGRCEQFCKNSADNKVVCSCTEGYRLAENQKSCEPAVPFPCGRVSVSQTSKLTR chain 2: VVGGEDAKPGQFPWQVVLNGKVDAFCGGSIVNEKWIVTAAHCVETGVKITVVAGEHNIEETEHTEQKRNVIRIIPHHNYSAAINKYNHDIALLELDEPLVLNSYVTPICIADKEYTNIFLKFGSGYVSGWGRVFHKGYSALVLQYLRVPLVDRATCLESTKFTIYNNMFCAGFHEGGRDSCQGDSGGPHVTEVEGTSFLTGIISWGEECAMKGKYGIYTKVSEYVNWIKNKTKLT | > 517 | – | 72.4 nM | 3.8 s⁻¹ | – | –
3 | FIXa-Y155F/I251S/R318Y/R338E/R403E/E410N (protein) chain 1: YNSGKLEEFVQGNLERECMEEKCSFEEAREVFENTERTTEFWKQYVDGDQCESNPCLNGGSCKDDINSYECWCPFGFEGKNCELDVTCNIKNGRCEQFCKNSADNKVVCSCTEGYRLAENQKSCEPAVPFPCGRVSVSQTSKLTR chain 2: VVGGEDAKPGQFPWQVVLNGKVDAFCGGSIVNEKWIVTAAHCVETGVKITVVAGEHNIEETEHTEQKRNVSRIIPHHNYNAAINKYNHDIALLELDEPLVLNSYVTPICIADKEYTNIFLKFGSGYVSGWGRVFHKGYSALVLQYLRVPLVDRATCLESTKFTIYNNMFCAGFHEGGRDSCQGDSGGPHVTEVEGTSFLTGIISWGEECAMKGKYGIYTKVSEYVNWIKNKTKLT | > 517 | 7.2 s⁻¹ | – | – | – | –
4 | FIXa-Y155F/K228N/R318Y/R338E/R403E/E410N (protein) chain 1: YNSGKLEEFVQGNLERECMEEKCSFEEAREVFENTERTTEFWKQYVDGDQCESNPCLNGGSCKDDINSYECWCPFGFEGKNCELDVTCNIKNGRCEQFCKNSADNKVVCSCTEGYRLAENQKSCEPAVPFPCGRVSVSQTSKLTR chain 2: VVGGEDAKPGQFPWQVVLNGKVDAFCGGSIVNEKWIVTAAHCVETGVNITVVAGEHNIEETEHTEQKRNVIRIIPHHNYNAAINKYNHDIALLELDEPLVLNSYVTPICIADKEYTNIFLKFGSGYVSGWGRVFHKGYSALVLQYLRVPLVDRATCLESTKFTIYNNMFCAGFHEGGRDSCQGDSGGPHVTEVEGTSFLTGIISWGEECAMKGKYGIYTKVSEYVNWIKNKTKLT | > 517 | 9.7 s⁻¹ | – | – | – | –
5 | FIXa-R318Y/R338E/E410N/T412V (protein) chain 1: YNSGKLEEFVQGNLERECMEEKCSFEEAREVFENTERTTEFWKQYVDGDQCESNPCLNGGSCKDDINSYECWCPFGFEGKNCELDVTCNIKNGRCEQFCKNSADNKVVCSCTEGYRLAENQKSCEPAVPFPCGRVSVSQTSKLTR chain 2: VVGGEDAKPGQFPWQVVLNGKVDAFCGGSIVNEKWIVTAAHCVETGVKITVVAGEHNIEETEHTEQKRNVIRIIPHHNYNAAINKYNHDIALLELDEPLVLNSYVTPICIADKEYTNIFLKFGSGYVSGWGRVFHKGYSALVLQYLRVPLVDRATCLESTKFTIYNNMFCAGFHEGGRDSCQGDSGGPHVTEVEGTSFLTGIISWGEECAMKGKYGIYTKVSRYVNWIKNKVKLT | > 517 | – | 29.7 nM | 5.2 s⁻¹ | 0.0236 µM | 2.4e+08 M⁻¹ s⁻¹
6 | FIXa-D104N/K106S/N260S/R318Y/R338E/R403E/E410N (protein) chain 1: YNSGKLEEFVQGNLERECMEEKCSFEEAREVFENTERTTEFWKQYVDGDQCESNPCLNGGSCKDDINSYECWCPFGFEGKNCELDVTCNIKNGRCEQFCKNSANNSVVCSCTEGYRLAENQKSCEPAVPFPCGRVSVSQTSKLTR chain 2: VVGGEDAKPGQFPWQVVLNGKVDAFCGGSIVNEKWIVTAAHCVETGVKITVVAGEHNIEETEHTEQKRNVIRIIPHHNYSAAINKYNHDIALLELDEPLVLNSYVTPICIADKEYTNIFLKFGSGYVSGWGRVFHKGYSALVLQYLRVPLVDRATCLESTKFTIYNNMFCAGFHEGGRDSCQGDSGGPHVTEVEGTSFLTGIISWGEECAMKGKYGIYTKVSEYVNWIKNKTKLT | > 517 | – | 61.1 nM | 5.4 s⁻¹ | – | –
7 | FIXa-D85N/K228N/R318Y/R338E/R403E/E410N (protein) chain 1: YNSGKLEEFVQGNLERECMEEKCSFEEAREVFENTERTTEFWKQYVDGDQCESNPCLNGGSCKDDINSYECWCPFGFEGKNCELNVTCNIKNGRCEQFCKNSADNKVVCSCTEGYRLAENQKSCEPAVPFPCGRVSVSQTSKLTR chain 2: VVGGEDAKPGQFPWQVVLNGKVDAFCGGSIVNEKWIVTAAHCVETGVNITVVAGEHNIEETEHTEQKRNVIRIIPHHNYNAAINKYNHDIALLELDEPLVLNSYVTPICIADKEYTNIFLKFGSGYVSGWGRVFHKGYSALVLQYLRVPLVDRATCLESTKFTIYNNMFCAGFHEGGRDSCQGDSGGPHVTEVEGTSFLTGIISWGEECAMKGKYGIYTKVSEYVNWIKNKTKLT | > 517 | 6 s⁻¹ | – | – | – | –
8 | FIXa-D104N/K106S/K247N/N249S/R318Y/R338E/R403E/E410N (protein) chain 1: YNSGKLEEFVQGNLERECMEEKCSFEEAREVFENTERTTEFWKQYVDGDQCESNPCLNGGSCKDDINSYECWCPFGFEGKNCELDVTCNIKNGRCEQFCKNSANNSVVCSCTEGYRLAENQKSCEPAVPFPCGRVSVSQTSKLTR chain 2: VVGGEDAKPGQFPWQVVLNGKVDAFCGGSIVNEKWIVTAAHCVETGVKITVVAGEHNIEETEHTEQNRSVIRIIPHHNYNAAINKYNHDIALLELDEPLVLNSYVTPICIADKEYTNIFLKFGSGYVSGWGRVFHKGYSALVLQYLRVPLVDRATCLESTKFTIYNNMFCAGFHEGGRDSCQGDSGGPHVTEVEGTSFLTGIISWGEECAMKGKYGIYTKVSEYVNWIKNKTKLT | > 517 | 5.2 s⁻¹ | – | – | – | –
9 | FIXa-R318Y/R338E/N346D/R403E/E410N (protein) chain 1: YNSGKLEEFVQGNLERECMEEKCSFEEAREVFENTERTTEFWKQYVDGDQCESNPCLNGGSCKDDINSYECWCPFGFEGKNCELDVTCNIKNGRCEQFCKNSADNKVVCSCTEGYRLAENQKSCEPAVPFPCGRVSVSQTSKLTR chain 2: VVGGEDAKPGQFPWQVVLNGKVDAFCGGSIVNEKWIVTAAHCVETGVKITVVAGEHNIEETEHTEQKRNVIRIIPHHNYNAAINKYNHDIALLELDEPLVLNSYVTPICIADKEYTNIFLKFGSGYVSGWGRVFHKGYSALVLQYLRVPLVDRATCLESTKFTIYDNMFCAGFHEGGRDSCQGDSGGPHVTEVEGTSFLTGIISWGEECAMKGKYGIYTKVSEYVNWIKNKTKLT | > 517 | – | 77.7 nM | 2.5 s⁻¹ | – | –
10 | FIXa-I251S/R318Y/R338E/R403E/E410N (protein) chain 1: YNSGKLEEFVQGNLERECMEEKCSFEEAREVFENTERTTEFWKQYVDGDQCESNPCLNGGSCKDDINSYECWCPFGFEGKNCELDVTCNIKNGRCEQFCKNSADNKVVCSCTEGYRLAENQKSCEPAVPFPCGRVSVSQTSKLTR chain 2: VVGGEDAKPGQFPWQVVLNGKVDAFCGGSIVNEKWIVTAAHCVETGVKITVVAGEHNIEETEHTEQKRNVSRIIPHHNYNAAINKYNHDIALLELDEPLVLNSYVTPICIADKEYTNIFLKFGSGYVSGWGRVFHKGYSALVLQYLRVPLVDRATCLESTKFTIYNNMFCAGFHEGGRDSCQGDSGGPHVTEVEGTSFLTGIISWGEECAMKGKYGIYTKVSEYVNWIKNKTKLT | > 517 | 4.8 s⁻¹ | – | – | – | –
11 | FIXa-K247N/N249S/R318Y/R338E/R403E/E410N (protein) chain 1: YNSGKLEEFVQGNLERECMEEKCSFEEAREVFENTERTTEFWKQYVDGDQCESNPCLNGGSCKDDINSYECWCPFGFEGKNCELDVTCNIKNGRCEQFCKNSADNKVVCSCTEGYRLAENQKSCEPAVPFPCGRVSVSQTSKLTR chain 2: VVGGEDAKPGQFPWQVVLNGKVDAFCGGSIVNEKWIVTAAHCVETGVKITVVAGEHNIEETEHTEQNRSVIRIIPHHNYNAAINKYNHDIALLELDEPLVLNSYVTPICIADKEYTNIFLKFGSGYVSGWGRVFHKGYSALVLQYLRVPLVDRATCLESTKFTIYNNMFCAGFHEGGRDSCQGDSGGPHVTEVEGTSFLTGIISWGEECAMKGKYGIYTKVSEYVNWIKNKTKLT | 418 | 5.8 s⁻¹ | – | – | – | –
12 | FIXa-Y155F/N260S/R318Y/R338E/R403E/E410N (protein) chain 1: YNSGKLEEFVQGNLERECMEEKCSFEEAREVFENTERTTEFWKQYVDGDQCESNPCLNGGSCKDDINSYECWCPFGFEGKNCELDVTCNIKNGRCEQFCKNSADNKVVCSCTEGYRLAENQKSCEPAVPFPCGRVSVSQTSKLTR chain 2: VVGGEDAKPGQFPWQVVLNGKVDAFCGGSIVNEKWIVTAAHCVETGVKITVVAGEHNIEETEHTEQKRNVIRIIPHHNYSAAINKYNHDIALLELDEPLVLNSYVTPICIADKEYTNIFLKFGSGYVSGWGRVFHKGYSALVLQYLRVPLVDRATCLESTKFTIYNNMFCAGFHEGGRDSCQGDSGGPHVTEVEGTSFLTGIISWGEECAMKGKYGIYTKVSEYVNWIKNKTKLT | 501 | – | 83.9 nM | 5.8 s⁻¹ | – | –
13 | FIXa-D104N/K106S/I251S/R318Y/R338E/R403E/E410N (protein) chain 1: YNSGKLEEFVQGNLERECMEEKCSFEEAREVFENTERTTEFWKQYVDGDQCESNPCLNGGSCKDDINSYECWCPFGFEGKNCELDVTCNIKNGRCEQFCKNSANNSVVCSCTEGYRLAENQKSCEPAVPFPCGRVSVSQTSKLTR chain 2: VVGGEDAKPGQFPWQVVLNGKVDAFCGGSIVNEKWIVTAAHCVETGVKITVVAGEHNIEETEHTEQKRNVSRIIPHHNYNAAINKYNHDIALLELDEPLVLNSYVTPICIADKEYTNIFLKFGSGYVSGWGRVFHKGYSALVLQYLRVPLVDRATCLESTKFTIYNNMFCAGFHEGGRDSCQGDSGGPHVTEVEGTSFLTGIISWGEECAMKGKYGIYTKVSEYVNWIKNKTKLT | > 517 | 5.5 s⁻¹ | – | – | – | –
